# Measured values reported in paper PMC6061704 (Nucleic Acids Research, 2018).
# T1: N-terminal His-tagged SisHjm (Hjm/Hel308a helicase from Sulfolobus islandicus) (Sulfolobus islandicus, UniProt F0NDL2 1-715)
# T1 sequence (looked up): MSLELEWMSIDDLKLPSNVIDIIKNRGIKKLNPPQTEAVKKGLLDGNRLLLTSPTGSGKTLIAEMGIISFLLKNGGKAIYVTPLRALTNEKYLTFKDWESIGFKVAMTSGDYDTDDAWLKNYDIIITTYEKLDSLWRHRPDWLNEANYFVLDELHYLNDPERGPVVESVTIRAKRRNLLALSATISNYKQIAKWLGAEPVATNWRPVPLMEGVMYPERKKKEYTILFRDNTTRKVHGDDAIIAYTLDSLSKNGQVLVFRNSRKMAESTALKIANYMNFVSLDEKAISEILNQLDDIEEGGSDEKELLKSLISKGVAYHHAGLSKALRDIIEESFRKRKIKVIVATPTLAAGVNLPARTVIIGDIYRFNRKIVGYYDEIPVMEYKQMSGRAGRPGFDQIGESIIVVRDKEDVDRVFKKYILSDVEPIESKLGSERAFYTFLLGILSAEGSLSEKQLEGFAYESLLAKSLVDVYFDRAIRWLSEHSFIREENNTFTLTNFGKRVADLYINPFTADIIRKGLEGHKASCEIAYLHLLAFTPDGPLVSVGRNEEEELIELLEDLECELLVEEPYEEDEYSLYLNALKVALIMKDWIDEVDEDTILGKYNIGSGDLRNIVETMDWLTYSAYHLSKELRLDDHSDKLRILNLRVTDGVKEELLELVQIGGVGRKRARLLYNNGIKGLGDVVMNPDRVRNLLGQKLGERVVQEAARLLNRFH
# B1: SisPINA (PIN domain-containing ATPase from Sulfolobus islandicus), recombinant, without tag (enzyme, UniProt F0NID4 1-505, looked up)
# chain: MNDLMLDKSALLFGVSKYLEKGIITGNVLIHKSLLAELERESNDGLVSAEIALDEVKKLKDITERILVNFEIVGDDSKKGEANELSREYCLEKGCIIVTADETQKKICDAMGIQYNFLQPLKQGLSFESFFDDETMSLHIKEDTVPRAKKGKPGNWKFVNLSDKPMLSTDVRMIANEIINAVRLIKGSFVEIERRGSLIIQLGNYRVVITRPPLSDGWEITITRPVVRKRLEDYNLDERLIKRLEERAEGIIIAGAPGMGKTTFAQALAEYYMRLGKIVKTIESPRDMHLPPEITQYSKNYAEIGELHDILLLSRPDYTVYDEMRNDEDFKLYVDLRLAGVGMVGVVHATSPIDAIHRFVNRVDIGTIPNILDTIIFINSGNVSKVYTLEMTVKVPAGLKEADLARPVVEIKDLATGNTEYEIYVFGEQTMIVPVNRGITMSNMEFKISKIVNNIIPNATVKYEDGEYVIVIPKEEIGKYNRKLVQRLKRLEKKNNIKIKIKLSD
# Columns and labels:
# SEC = target: the molecule itself; assay: SEC
# [1] = target: T1, N-terminal His-tagged SisHjm …; assay: SEC
binder,measurement,setting,value
B1,stoichiometry N,SEC,6
same,stoichiometry N,[1],~1 Hjm monomer per PINA hexamer
